Experiment: yeast display, Sf9 membrane polyspecificity reagent, FACS + sequencing; frameworks hold sequencing errors
In short: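 Nanobodies came from a synthetic yeast display library in Saccharomyces cerevisiae BJ5465, induced with galactose for 36–48 hours and stained for 1 hour at 4 °C with 10% biotinylated, detergent-solubilized Sf9 membrane reagent. Cells were enriched on streptavidin microbeads and then FACS-sorted, with low and high (top ~1%) gates set on anti-HA fluorescence for expression and streptavidin fluorescence for reagent binding. Each polyreactivity label reflects the gate a clone came from. Genes were amplified by colony PCR, sequenced by MiSeq 2 × 250 and filtered by CDR length.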

QVQLVESGGGLVQAGGSLRLSCAASGFIFYDYTMGWYRQAPGKERELVAAISSRGGSTYYADSVKGRFTISRDNAKNTVYLQMNSLKPEDTAVYYCAAYWSQQTYEYWGQGTQVTVSS
polyreactivity (PSR sort gate): high polyreactivity

QVQLVESGGGLVQAGGSLRLSCAASGFIFYEYAMGWYRQAPGKERELVAAISSGGDTNYADSVKGRFTISRDNANNTVYLQMNSLKPEDTAVYYCAKDYSDPGWAEYDYWGQGTQVTVSS
polyreactivity (PSR sort gate): low polyreactivity

QVQLVESGGGLVQAGGSLRLSCAASGFIFYEYAMGWYRQAPGKERELVARITRSDGSTYYADSVKGRFTISRDNAKNTVYFQMNSLKPEDTAVYYCNVRRAYYRRGPYYSTYYYWGQGTQVTVSS
polyreactivity (PSR sort gate): high polyreactivity

QVQLVESGGGLVQAGGSLRLSCAASGFIFYGNAMGWYRPAPGKERELVAAIRWNGGRTYYADSVKGRFTISRDNAKNTVYLQMNSLKAEDTAVYYCAARISQLKYGYWGQGTQVTVSS
polyreactivity (PSR sort gate): high polyreactivity

QVQLVESGGGLVQAGGSLRLSCAASGFIFYGNAMGWYRQAPGKVRELVAGISRSGGSTYYADSVKGRFTISRDNAKNTVSLQMNSLKPEDSAVYYCAASYWHRRYDYWGQGTQVTVSS
polyreactivity (PSR sort gate): high polyreactivity

QVQLVESGGGLVQAGGSLRLSCAASGFIFYGYAMGWSRQAPGKERELVAAIRYSGTSTYADSVKGRFTISRDNAKNTVYLQMNSLKPEDTAVFYCAKKYLYYGVPSYKYWGQGTQVTVSS
polyreactivity (PSR sort gate): high polyreactivity

QVQLVESGGGLVQAGGSLRLSCAASGFIFYGYAMGWYRQAPGKERELVAGISTGGSTNYADSVKGRITISRDNAKNTVYLQMNSLKPEDTAVYYCAVVDVEEHVGHWGQGTQVTVSS
polyreactivity (PSR sort gate): low polyreactivity

QVQLVESGGGLVQAGGSLRLSCAASGFIFYGYAMGWYSQAPGKERELVAGISTGGSTNYADSVKGRFTISRDNAKNTVYLQMNSLKPEDTAVYYCAKRAYFYYGRYDYWGQGTQVTVSS
polyreactivity (PSR sort gate): low polyreactivity

QVQLVESGGGLVQAGGSLRLSCAASGFIFYHYAIGWYRQEPGKERELVAAISGRGGSTYYADSVKGRFTISRDNAKNSVYLQMNSLKPEDTAVYYCSTDYSRTFDYWGQGTQVTVSS
polyreactivity (PSR sort gate): high polyreactivity

QVQLVESGGGLVQAGGSLRLSCAASGFIFYINAMGWYRQAPGKERELVAAISTSGGSTYYADSVKGRFTISRDNAKNTVYLQMNSLKPEDSAVYYCAAEGSYWYYSYDYWGQGTQVTVSS
polyreactivity (PSR sort gate): high polyreactivity

QVQLVESGGGLVQAGGSLRLSCAASGFIFYKNAMGWYRQAPGKERELVAAISRRGSSTYYADSVKGRFTISRDNAKNTVYLQMNSLKPEDTAVYYCAADSHIDHGKWAYDYWGQGTQVTVSS
polyreactivity (PSR sort gate): high polyreactivity

QVQLVESGGGLVQAGGSLRLSCAASGFIFYKNAMGWYRQAPGKERELVAISSSGGSTYYADSVKGRFTISRDNAKNSVYLQMNSLKPEDTAVYYCADRSRRYRGGYWGQGTQVTVSS
polyreactivity (PSR sort gate): high polyreactivity

QVQLVESGGGLVQAGGSLRLSCAASGFIFYKYAMGWYRQAPGKEREFVAAITWSGGNTYYADSVKGRFTISRDNAKNTVYLQMNSLKPEDTAVYYCAARDSKWGQGTQVTVSS
polyreactivity (PSR sort gate): low polyreactivity

QVQLVESGGGLVQAGGSLRLSCAASGFIFYKYAMGWYRQAPGKERELVARISISGGRTYYADSVKGRFTISRDNAKNTVYLQMNSLKPEDTAVYYCATSPWWYGYAAYGMDYWGQGTQVTVSS
polyreactivity (PSR sort gate): low polyreactivity

QVQLVESGGGLVQAGGSLRLSCAASGFIFYLNAMGWSRKAPGKERELVAAISSSGGRTYYADSVKGRFTISRDNAKNTVYFQMNSLKAEDTAVYYCNAVTLYRSRTDGYWGQGTQVTVSS
polyreactivity (PSR sort gate): high polyreactivity

QVQLVESGGGLVQAGGSLRLSCAASGFIFYLYTMGWYRQAPGKERELVAAITKSGTRTYYADSVKGRFTISRDNAKNTVYLQMNSLKPEDTAVYYCAAEWGSSYRWGMDYWGQGTQVTVSS
polyreactivity (PSR sort gate): high polyreactivity

QVQLVESGGGLVQAGGSLRLSCAASGFIFYLYTMGWYRQAPGKERELVAAITRSGGTYYADSVKGRFTISRDNAKNTVYLQMNSLKPEDTAVYYCNADDYEGYYYWGQGTQVTVSS
polyreactivity (PSR sort gate): low polyreactivity

QVQLVESGGGLVQAGGSLRLSCAASGFIFYPYAMGWYRQAPGKERELVAVITSGGRTYYADSVKGRFTISRDNAKNTVYLQMNSLKPEDTAVYYCAARYGRIHWKANWPEYGYWGQGTQVTVSS
polyreactivity (PSR sort gate): low polyreactivity

QVQLVESGGGLVQAGGSLRLSCAASGFIFYPYAMGWYRQAPGKERELVAVITSGGRTYYADSVKGRFTISRDNAKNTVYLQMYSLKPEDTAVYYCNADTFQWWDIADVYVIVKYGYWGQGTQVTVSS
polyreactivity (PSR sort gate): low polyreactivity

QVQLVESGGGLVQAGGSLRLSCAASGFIFYPYAMGWYRQAPGKVRELVAVITSGGRTYYADSVKGRFTISRDNAKNTVYLQMNSLKAEDTAVYYCAARYGRIHWKANWPEYGYWGQGTQVTVSS
polyreactivity (PSR sort gate): low polyreactivity

QVQLVESGGGLVQAGGSLRLSCAASGFIFYQYAKGWYRQAPGKERELVATISFRGGRTYYADSVKGRFTITRDTAKNTVYLQMNSLKPDETAVYYCNAKRVSSRFYKWDYYWGQGTQVTVSS
polyreactivity (PSR sort gate): high polyreactivity

QVQLVESGGGLVQAGGSLRLSCAASGFIFYRNTMGWYRQAPGKEREFFAAITRSGGITRYADSVKGRFTISRDNAKNTVYLQMNSLKPEDTAVYYCAARRWIADPGRIMDYWGQGTQVTVSS
polyreactivity (PSR sort gate): high polyreactivity

Source: the nanobody polyreactivity screen of Harvey et al. (2022)
